Measurements published in paper PMC5435687 (Scientific Reports, 2017).
Where “and” joins values, the source holds several entries; their conditions need not be identical. Equal values may be shown once.

Legend:
[1] = SDS-PAGE of peptide solutions, band quantification (monomer fraction); format: physicochemical; settings: 1 µM HF488-labelled peptide in cell culture medium after HFIP pre-treatment; NuPAGE 4–12% Bis-Tris gel, fluorescence scan, ImageJ
Description: The lyophilized Aβ peptide powders were dissolved in hexafluoro-2-propanol to disrupt any aggregates[26] and monomerize the peptide. The solutions were vortexed briefly and aliquoted at 4 °C. The solvent in each aliquot was evaporated at 37 °C for 60 min using a RVC 2–18 CD Rotational Vacuum concentrator (Martin Christ, Germany). The remaining peptide films were snap frozen in liquid nitrogen and kept at −80 °C until further use. For concentration determinations the peptide film was dissolved in 1% ammonium hydroxide (v/v) and the absorption of the dye label was measured on a Cary 4000 UV-Vis Spectrophotometer (Agilent Technologies, Santa Clara, CA, US). Extinction coefficients of 70,000 M^−1cm^−1 at 504 nm and 250 000 M^−1cm^−1 at 649 nm was used for the HF488 and HF647 dye labels, respectively, according to the information provided by the manufacturer. Prior to each experiment one peptide film was dissolved in a small volume 1% ammonium hydroxide (v/v) and diluted with cell culture medium supplemented with 30 mM HEPES. […] The HF488 dye was excited by a 488 nm laser and emission detected through a 520/40 nm filter. After background correction, the gel bands corresponding to monomer, dimer and trimer species were quantified in ImageJ (NIH, Bethesda, Maryland, US) by integrated intensity of the respective bands.

[2] = system: SH-SY5Y cells transfected with Arf6 WT/Q67L; test: Uptake in cells transfected with Arf6 WT or Q67L (confocal imaging); format: cell-based, human; settings: SH-SY5Y 24 h post transfection, 1 µM HF488-labelled Aβ 24 h, confocal microscopy
Description: The samples were washed 1x in serum free medium prior to incubation with Aβ peptides and/or other reagents also in serum free medium that was supplemented with 30 mM HEPES and 2% B-27. For experiments including Trf B-27 was omitted as it, according to the media formulation provided by the manufacturer, contains unlabelled Trf that interferes with the experiment. Prior to imaging, cells were stained with 50 nM LysoTracker Deep Red for 30 min and 5 µg/ml Hoechst 33342 was added during the last 10 min of incubation. The cells were thereafter washed 1x, treated with 5 µg/ml FM 4–64 and imaged immediately (for labelling of cellular membrane) or after 10 min incubation at 37 °C (for labelling of cellular membrane and endocytic vesicles). […] The scanner unit was mounted onto a Leica DMIRB microscope equipped with an oil immersion 63x NA 1.47 Leica HCX PL APO objective for imaging and co-localisation analysis, or a 40x NA 0.55 Leica N PLAN L CORR air objective for quantification of peptide uptake. The sample was excited and detected sequentially with appropriate excitation laser lines and emission filters. […]

[3] = system: SH-SY5Y cells; test: Confocal imaging based quantification of cellular uptake of Aβ; format: cell-based, human; settings: for number of internalised Aβ peptides per cell (rounded): SH-SY5Y, 1 µM peptide, 8 h, imaging-based quantification, order-of-magnitude statement; for intravesicular Aβ concentration: re-calculated from molecules per cell (1 µM, 8 h) under assumption of total lysosomal load of 10 μm^3 per cell
Description: The samples were washed 1x in serum free medium prior to incubation with Aβ peptides and/or other reagents also in serum free medium that was supplemented with 30 mM HEPES and 2% B-27. For experiments including Trf B-27 was omitted as it, according to the media formulation provided by the manufacturer, contains unlabelled Trf that interferes with the experiment. Prior to imaging, cells were stained with 50 nM LysoTracker Deep Red for 30 min and 5 µg/ml Hoechst 33342 was added during the last 10 min of incubation. The cells were thereafter washed 1x, treated with 5 µg/ml FM 4–64 and imaged immediately (for labelling of cellular membrane) or after 10 min incubation at 37 °C (for labelling of cellular membrane and endocytic vesicles). Confocal images were acquired either on a Nikon C2+ confocal microscope equipped with a C2-DUVB GaAsP Detector Unit and using an oil-immersion 60 × 1.4 Nikon APO objective (Nikon Instruments, Amsterdam, Netherlands), or on a home-built Thorlabs CLS system equipped with a Galvo:Resonant scanner, a Multi-Channel Fiber-Coupled laser source and High-Sensitivity GaAsP PMT detectors recording onto ThorImageLS software (Thorlabs Inc, New Jersey, U.S.A.). The scanner unit was mounted onto a Leica DMIRB microscope equipped with an oil immersion 63x NA 1.47 Leica HCX PL APO objective for imaging and co-localisation analysis, or a 40x NA 0.55 Leica N PLAN L CORR air objective for quantification of peptide uptake. The sample was excited and detected sequentially with appropriate excitation laser lines and emission filters.
Images were captured with an open pinhole, corresponding to 7.8 airy units (AUs), in order to sample intensity from intracellular peptide throughout the full thickness of the cells. First, to determine an accurate sampling depth, images were acquired at three focal planes separated by 1 µm between each and analysed for matched summed intracellular intensity. Next, images were acquired with identical settings from a field of view with on average 25 cells/image. […] To obtain the total Aβ emission intensity per cell, all pixel values were summed and divided by the total number of cells in the image (the cell number was determined from the number of nuclei visible in the Hoechst emission channel). […] The mean intensity per pixel was calculated and related to concentration by performing a linear regression of mean intensity from three samples per concentration. The imaging depth was calculated based on imaging parameters and objective specifications generating a point spread function (PSF) for the focal spot. The resulting voxel size was calculated to be 740 nm in the axial direction, whereby 2.5x this voxel was determined to be representative of the sampling probe depth. […]

Substance	monomer fraction by SDS-PAGE band intensities [1] [%]	Aβ uptake in Arf6 Q67L versus wild-type Arf6 overexpressing cells [2]	number of internalised Aβ peptides per cell (rounded) [3]	intravesicular Aβ concentration [3]
Aβ(1–40): Synthetic 40 residue amyloid-β peptide conjugated to HiLyte Fluor HF488 (or HF647) at the N-terminus, from Anaspec	84	no difference	400,000 molecules per cell and ~ 400,000 molecules per cell	~ 60 µM
Aβ(1–42): Synthetic 42 residue amyloid-β peptide conjugated to HiLyte Fluor HF488 (or HF647) at the N-terminus, from Anaspec	86	no difference	800,000 molecules per cell and ~ 800,000 molecules per cell	~ 140 µM
